The values below come from patent US5405946A, “Recombinant protein S variants deficient in C4BP binding activity, compositions and therapeutic methods” (The Scripps Research Institute, priority 1992, dated 1995).

Changes are numbered by the printed parent chain. In names and notes the source's numbering stands. Entries after “also recorded” stand apart in the source; their conditions may differ.

For series [1], the target named is T1, human C4b-binding protein (C4BP) (Homo sapiens, UniProt P20851).
T1 sequence (P20851 18-252): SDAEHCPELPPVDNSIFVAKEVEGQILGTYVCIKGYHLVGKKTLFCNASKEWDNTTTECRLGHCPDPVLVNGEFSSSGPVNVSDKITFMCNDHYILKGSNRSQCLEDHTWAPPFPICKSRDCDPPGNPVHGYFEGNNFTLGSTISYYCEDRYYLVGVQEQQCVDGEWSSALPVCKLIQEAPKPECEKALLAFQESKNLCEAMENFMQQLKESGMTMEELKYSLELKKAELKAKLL
T1 sequence (P04003 49-597 partner): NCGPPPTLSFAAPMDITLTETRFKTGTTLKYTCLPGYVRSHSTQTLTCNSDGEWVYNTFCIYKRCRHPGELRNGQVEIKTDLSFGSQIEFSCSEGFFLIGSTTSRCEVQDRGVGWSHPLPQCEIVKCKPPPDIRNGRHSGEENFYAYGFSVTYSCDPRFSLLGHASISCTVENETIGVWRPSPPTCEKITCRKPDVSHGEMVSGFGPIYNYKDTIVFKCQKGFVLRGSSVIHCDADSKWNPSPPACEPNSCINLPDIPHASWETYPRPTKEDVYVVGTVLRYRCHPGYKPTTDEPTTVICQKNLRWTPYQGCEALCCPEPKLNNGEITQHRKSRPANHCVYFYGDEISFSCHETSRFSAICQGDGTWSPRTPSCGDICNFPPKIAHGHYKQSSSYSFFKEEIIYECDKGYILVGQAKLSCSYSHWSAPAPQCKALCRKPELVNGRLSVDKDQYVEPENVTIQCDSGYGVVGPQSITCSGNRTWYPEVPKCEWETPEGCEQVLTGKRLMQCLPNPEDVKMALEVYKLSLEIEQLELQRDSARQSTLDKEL
Kind of series: ELISA of complex formation between recombinant PS variant proteins and C4BP. The note with it: C4BP 1 ug/ml, 18 hours room temperature. As for the experimental part: The complex formation between the recombinant PS variant proteins and C4BP was measured with a sensitive ELISA using C4BP and a peroxidase conjugated anti-PS antibody as described by Chang et al., Thromb. Haemost., 67:526-532 (1992). Briefly, IgG at a concentration of 10 ug/ml from monoclonal antibody 8C11, which is directed against the alpha chain of C4BP (Hessing et al., J. Immunol., 144:204-208 (1990)), was coated in 50 mM NaHCO3 at pH 9.6 overnight at 4C. onto polyvinyl microtiter plates (Costar, Cambridge, Mass.). After washing to remove the unbound IgGs, the wells were blocked with 1% (w/v) BSA in 50 mM Tris-HCl at pH 7.5 containing 150 mM NaCl and 5 mM CaCl2 for 1 hour at room temperature. C4BP, prepared as described by Hessing et al., supra, was allowed to bind for 2 hours with a final concentration of 1 ug/ml. Increasing amounts of recombinant PS proteins (E424K, Q427E, K429E, […] and K432E) and wild-type recombinant PS prepared in Example 1 were then added in concentrations ranging from 0-150 ng/ml and maintained for 18 hours at room temperature. Bound proteins were allowed to bind to rabbit anti-human PS IgG conjugated to peroxidase (Dakopatts, Glostrup, Denmark) at a concentration of 0.3 ug/ml for 2 hours at room temperature. After washing the wells to remove the unbound proteins, 100 ul of 0.1M sodium phosphate/0.2M sodium citrate at pH 5.0 containing 0.04% 1,2-phenylenediamine dihydrochloride and 0.015% hydrogen peroxide was added. The hydrolysis of phenylenediamine was stopped by adding 50 ul 2N sulfuric acid. The absorbance was measured at 490 nm using a Vmax plate reader (Molecular Devices Corp., Menlo Park, Calif.). The data represented the mean of duplicate determinations.
The binding of the of the thrombin domain recombinant PS variants to C4BP was determined. The complex formation between the recombinant proteins and C4BP was measured with a sensitive ELISA using anti-C4BP monoclonal antibody 8C11 lgG, purified C4BP and peroxidase conjugated anti-PS antibody as described in Example 2A.
Anti-C4BP monoclonal antibody 8C11 IgG was coated onto microtiter wells to catch C4BP (1 ug/ml). Increasing amounts (0-100 ng/ml) of recombinant PS or variants (R49L, R60L, R70I, R49L/R60L, R60L/R70I, R49L/R70I and R49L/R60L/R70I) were added. Binding to C4BP was for 18 hours at room temperature. Bound PS variants were detected with anti-PS IgG conjugated to peroxidase (0.3 ug/ml). The results are the mean of duplicate values in two different experiments.
Background: ELISA stands for enzyme-linked immunosorbent assay.

Series [2] concerns the target activated protein C (APC) (Homo sapiens, UniProt P04070). Kind of series: Activated partial thromboplastin time clotting assay, APC cofactor activity in PS- and C4BP-depleted plasma. It counts as biochemical. As for the experimental part: (§1) An activated partial thromboplastin time clotting assay, using PS- and C4BP-depleted plasma, cephalin-kaolin reagent (Boehringer Mannhein, Indianapolis, Ind.), activated protein C (APC) and increasing amounts of recombinant PS variants was performed as described by Chang et al., Thromb. Haemost., 67:526-532 (1992). Briefly, to 50 ul PS and C4BP-depleted plasma (prepared as described by Koedam et al., J. Clin. Invest., 82:1236-1243 (1988)) was added 50 ul cephalin-kaolin reagent, 25 ul APC (Koedam et al., ibid) at 5 ug/ml and 15 to 45 ul recombinant PS variants (0-4 ug/ml) diluted in Michaelis buffer (28.5 mM sodium acetate, 28.5 mM sodium barbital and 116 mM NaCl, pH 7.35) and maintained for 3 minutes at 37C. Clotting was initiated by addition of 50 ul of 25 mM CaCl2 and the clotting time was measured in an Amelung-Coagulometer KC10.
(§2) The ability of the variants to serve as a cofactor for APC was tested in a clotting assay. The clotting assay was performed as described in Example 2D. To examine the effects of thrombin on recombinant PS variants APC cofactor activity, one ml of purified recombinant PS variants listed above and prepared in Example 1D (4-40 ug/ml) was maintained with 1/20 vol (50 ul) of thrombin-Sepharose for 1 hour at 37C. in 50 mM Tris-HCl pH 7.5 containing […]. Thrombin-Sepharose was removed by centrifugation. Supernatants containing the thrombin-treated PS were stored at -20C. until used.
(§3) The PS-dependent prolongation of the clotting time was measured in an activated partial thromboplastin time system using PS and C4BP depleted plasma, APC and cephalin-kaolin reagent as described in Example 2D. Increasing amounts of recombinant PS or the triple variant treated without or with thrombin were added. Clotting was initiated by the addition of CaCl2 and the clotting time was measured. The results are presented as the means of duplicate values.

Series [3] deals with T2, thrombin (Homo sapiens, UniProt P00734).
T2 construct: maintained with 1/20 vol (50 ul) of thrombin-Sepharose for 1 hour at 37C
Kind of series: APC cofactor clotting assay after thrombin-Sepharose treatment of PS variants. It counts as biochemical. As for the experimental part:
as §1, §2, §3

Series [4] deals with T2, thrombin. Kind of series: Reduced SDS-PAGE of PS variants with thrombin treatment. It counts as biochemical. The note with it: reduced SDS gels. As for the experimental part:
The purity and integrity of the recombinant PS variants was established by SDS-PAGE on 12.5% gradient gels according to Laemmli, Nature, 227:680-685 (1970) using the Phast system (Pharmacia Biotechnology, Sweden). After electrophoresis, the proteins were stained with silver nitrate or transferred onto Immobilon membranes for subsequent detection by Western blot analysis using rabbit anti-PS IgG conjugated to peroxidase (3 ug/ml).
For the thrombin-sensitive PS variant proteins, on reduced SDS gels, purified recombinant PS and the single and double variants all migrated as a doublet. […] The upper band of the doublet for recombinant PS and the single and double variants all could be converted into the lower band by thrombin treatment.

Series [5] deals with anti-PS monoclonal antibody LJ-56. Kind of series: Sandwich assay of LJ-56 reactivity to recombinant PS variant proteins. The note with it: LJ-56 0-10 ug/ml. It counts as binding. As for the experimental part: Reactivity of LJ-56 to the recombinant PS variant proteins gave essentially the same results when a sandwich detecting assay was performed. In the sandwich assay, a fixed amount of recombinant PS variants produced in Example 1B1) (50 ng for E424K and 100 ng for wild type, Q427E and K429E) were added to wells previously coated with rabbit anti-PS IgG at 10 ug/ml in coating buffer and treated to block nonspecific binding sites as described above. Following a maintenance period for 18 hours at room temperature, the wells were washed with TBS and 100 ul of serial dilutions of anti-PS monoclonal antibody LJ-56 (0-10 ug/ml) was added and maintained for 2 hours at room temperature. Detection of the immunoreactant products was accomplished with rabbit anti-mouse IgG conjugated to peroxidase (1:1000). The hydrolysis of […] was measure at 490 nm using a Vmax plate reader as described in Example 2A.

The mark [6] stands for this setting: first disulfide loop variants, 0-150 ng/ml, calcium.
Where [7] appears, read: final conc. 0.6 ug/ml, basal clotting 80.

activated protein C (APC), sequence (P04070 212-461 limits assumed): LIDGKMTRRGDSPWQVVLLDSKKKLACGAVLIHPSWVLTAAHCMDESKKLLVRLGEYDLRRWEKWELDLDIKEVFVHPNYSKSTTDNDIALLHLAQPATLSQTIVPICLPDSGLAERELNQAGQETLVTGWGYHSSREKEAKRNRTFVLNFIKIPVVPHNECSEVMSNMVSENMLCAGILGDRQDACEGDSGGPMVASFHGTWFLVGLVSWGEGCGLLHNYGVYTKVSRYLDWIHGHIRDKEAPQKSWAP
activated protein C (APC), sequence (P04070 43-197 limits assumed): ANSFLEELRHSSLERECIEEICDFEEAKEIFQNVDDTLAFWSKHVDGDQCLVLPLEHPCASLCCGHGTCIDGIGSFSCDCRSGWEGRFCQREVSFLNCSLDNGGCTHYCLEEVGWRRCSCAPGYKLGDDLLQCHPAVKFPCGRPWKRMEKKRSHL

B1: R49L/R60L/R70I variant: recombinant protein S triple variant, arginines 49, 60 and 70 replaced by leucine or isoleucine (protein)
chain: ANSLLEETKQGNLERECIEELCNKEEAREVFENDPETDYFYPKYLVCLLSFQTGLFTAALQSTNAYPDLISCVNAIPDQCSPLPCNEDGYMSCKDGKASFTCTCKPGWQGEKCEFDINECKDPSNINGGCSQICDNTPGSYHCSCKNGFVMLSNKKDCKDVDECSLKPSICGTAVCKNIPGDFECECPEGYRYNLKSKSCEDIDECSENMCAQLCVNYPGGYTCYCDGKKGFKLAQDQKSCEVVSVCLPLNLDTKYELLYLAEQFAGVVLYLKFRLPEISRFSAEFDFRTYDSEGVILYAESIDHSAWLLIALRGGKIEVQLKNEHTSKITTGGDVINNGLWNMVSVEELEHSISIKIAKEAVMDINKPGPLFKPENGLLETKVYFAGFPRKVESELIKPINPRLDGCIRSWNLMKQGASGIKEIIQEKQNKHCLVTVEKGSYYPGSGIAQFHIDYNNVSSAEGWHVNVTLNIRPSTGTGVMLALVSGNNTVPFAVSLVDSTSEKSQDILLSVENTVIYRIQALSLCSDQQSHLEFRVNRNNLELSTPLKIETISHEDLQRQLAVLDKAMKAKVATYLGGLPDVPFSATPVNAFYNGCMEVNINGVQLDLDEAISKHNDIRAHSCPSVWKKTKNS
As for B1, the “binding to C4BP” value in series [1] (thrombin domain variants, 0-100 ng/ml, in the presence of calcium) is reported as “unaltered affinity for binding to C4BP”. Also, the “Clotting Time” value in series [2] (concentration 1.19 ug/ml, without protein S 72 ± 2 seconds) is 84 s. The APC cofactor activity entry in series [2] (not treated with thrombin) is “higher APC cofactor activity (as defined by prolongation of the clotting time) than recombinant PS; also recorded: retained full APC cofactor activity”. The “Clotting Time After Treatment” value with thrombin [3] (after thrombin treatment, concentration 1.19 ug/ml, without protein S 72 ± 2 seconds) worked out at 85 s. The “APC cofactor activity after treatment with thrombin” value with thrombin [3] (thrombin-Sepharose 1 hour at 37C) was “retained its APC cofactor activity; also recorded: remained unchanged; also recorded: completely resistant to inactivation by thrombin”. In the series with thrombin [4], the “conversion of upper band into lower band by thrombin” value was “not converted into a lower band, indicating that this triple variant was resistant to thrombin”.

B2: K432E variant: recombinant human protein S with Lys-432 replaced by Glu (protein)
chain: B1 chain with L49R, L60R, I70R, K432E
In the case of B2, in series [1] (setting [6]), the “binding to C4BP” value was “failed to bind to C4BP at concentrations up to 50 ng/ml”.

B3: I425A/I426A variant: recombinant human protein S with alanine in place of isoleucine at positions 425 and 426 (protein)
chain: B1 chain with L49R, L60R, I70R, I425A, I426A
For the molecule B3, in series [1] (setting [6]), the “binding to C4BP” value is recorded as “failed to bind to C4BP at concentrations up to 50 ng/ml”.

B4: K429E variant: recombinant human protein S with glutamic acid in place of lysine at position 429 (protein)
chain: B1 chain with L49R, L60R, I70R, K429E
For B4, in series [1] (setting [6]), the “binding to C4BP” value is “failed to bind to C4BP at concentrations up to 50 ng/ml”. In series [2] (final conc. 1.8 ug/ml, basal clotting 80), the “Clotting Time” value was found to be 88 s. Also, in series [2] (in comparison with the basal clotting time of 80 seconds), the anticoagulant activity result is reported as “anticoagulant activity increased linearly with increasing volumes of variant PS”. Besides, in series [2] (increasing amounts of variant), the “clotting time at maximal inhibition of clotting” value was “approximately 95 seconds”. For the same molecule, the “recognition by LJ-56” value in series [5] was “not recognized”.

B5: Q427E variant: recombinant human protein S with Gln-427 replaced by Glu (protein)
chain: B1 chain with L49R, L60R, I70R, Q427E
In the case of B5, the “binding to C4BP” value in series [1] (setting [6]) is listed as “bound to C4BP with the same apparent affinity as the wild type recombinant molecule”. For the same molecule, the “Clotting Time” value in series [2] (setting [7]) was 94 s.

B6: E424K variant: recombinant human protein S with Glu-424 replaced by Lys (protein)
chain: B1 chain with L49R, L60R, I70R, E424K
As for B6, in series [1] (setting [6]), the “binding to C4BP” value is on record as “bound to C4BP with the same apparent affinity as the wild type recombinant molecule”. Besides, the “Clotting Time” value in series [2] (setting [7]) stood at 97 s.
